Measured values from publication PMC6525185, “6mA-DNA-binding factor Jumu controls maternal-to-zygotic transition upstream of Zelda”.

T1: Jumu FKH domain (SPR) (UniProt Q7K214 391-540)
T1 sequence: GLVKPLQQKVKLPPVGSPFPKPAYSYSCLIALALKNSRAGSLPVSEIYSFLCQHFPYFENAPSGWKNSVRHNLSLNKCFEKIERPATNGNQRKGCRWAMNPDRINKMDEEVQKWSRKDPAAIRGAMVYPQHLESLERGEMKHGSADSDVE


Biological target: T1, Jumu FKH domain (SPR)
Test: SPR; EMSA: 20 mM HEPES pH 7.5, 50 mM KCl, 1 mM DTT (printed DDT), 1 mM EDTA, 0.01 mg/ml BSA, 2% Ficoll 400, 5 ng/µl poly(dI:dC), 25 °C, 15 nM probe; SPR: 20 mM Tris-Cl pH 8.0, 150 mM NaCl, 0.005% Tween 20, 25 °C; pull-down: 50 mM Tris-HCl pH 8, 150 mM NaCl, 1 mM DTT, 0.25% NP40
Conditions: protein: recombinant; label: 5' and 3' FAM (EMSA); biotin (SPR, pull-down)

Row | Binder | Kd [µM]
1 | 6mA-dsDNA probe (dsDNA, N6-methyladenine in place of dA, by PCR with dm6ATP (both strands; primer-derived adenines probably unmodified, primers not given)) DNA 1: GCTATTTATGCGTTCTTTTCTTCTTTCTCATTTCTATATTTATAGTGTGTGTGTGTGTGTGGGTGTGTTTGTTGTATGTGGTTAAATATGCTTCGTTTTTGTTTAATTGGTTTTTGTTTTTGTGATGATCATGGG DNA 2: CCCATGATCATCACAAAAACAAAAACCAATTAAACAAAAACGAAGCATATTTAACCACATACAACAAACACACCCACACACACACACACACTATAAATATAGAAATGAGAAAGAAGAAAAGAACGCATAAATAGC | 2.37
2 | dA-dsDNA probe (dsDNA) DNA 1: GCTATTTATGCGTTCTTTTCTTCTTTCTCATTTCTATATTTATAGTGTGTGTGTGTGTGTGGGTGTGTTTGTTGTATGTGGTTAAATATGCTTCGTTTTTGTTTAATTGGTTTTTGTTTTTGTGATGATCATGGG DNA 2: CCCATGATCATCACAAAAACAAAAACCAATTAAACAAAAACGAAGCATATTTAACCACATACAACAAACACACCCACACACACACACACACTATAAATATAGAAATGAGAAAGAAGAAAAGAACGCATAAATAGC | 42.1
